Source: publication doi:10.1101/2025.11.06.687086

Molecular target: A/Solomon Islands/3/2006 (H1N1) HA (influenza A virus A/Solomon Islands/3/2006 (H1N1))
Assay: cryo-EM structure

With “A/Solomon Islands/3/2006 (H1N1) HA (natural protein)” the stoichiometry N was 3.
